From patent publication US20230241185A1, “COMPOSITION COMPRISING A DNA-DEGRADING ENZYME FOR USE IN A METHOD FOR THE TREATMENT OF IMMUNOSUPPRESSION AFTER ACUTE TISSUE INJURY” (Klinikum der Universität München, priority 2020, published 2023)
“Also recorded” adds a separate entry of the source.

What was measured:
[1] = test system: splenic B cells; assay: Splenic B cell counts by FACS after experimental stroke; format: in vivo, mice; settings: hrDNase 1000 U vs control; 18 h after stroke; normalized to sham
Excerpt: (§1) Mice were anaesthetized with isoflurane delivered in a mixture of 30% O2 and 70% N2O. An incision was made between the ear and the eye in order to expose the temporal bone. Mice were placed in supine position, and a laser Doppler probe was affixed to the skull above the middle cerebral artery (MCA) territory. The common carotid artery and left external carotid artery were exposed via midline incision and further isolated and ligated. […] Lack of brain ischemia as quantified post-mortem by histological analysis. […]
(§2) The anti-mouse antibodies listed below (see Table 1) were used for surface marker staining of CD45^+ leukocytes, CD45^+CD11b^+ monocytes (+FasL^+ expression), CD3^+ T cells, CD3^+CD4^+ Thelper cells, CD3^+CD8^+ Tcytotox cells and CD19^+ B cells (for representative gating strategy, see FIG. 10A). […] Flow cytometric data was acquired using a BD FACSverse flow cytometer (BD Biosciences) and analyzed using FlowJo software (Treestar).

[2] = test system: splenic CD3^+ T cells; assay: Splenic T cell counts by FACS after experimental stroke; format: in vivo, mice; settings: hrDNase 1000 U 1 hour after surgery vs vehicle; experimental stroke; normalized to sham
Excerpt: (§3) Mice were anaesthetized with isoflurane delivered in a mixture of 30% O2 and 70% N2O. An incision was made between the ear and the eye in order to expose the temporal bone. Mice were placed in supine position, and a laser Doppler probe was affixed to the skull above the middle cerebral artery (MCA) territory. The common carotid artery and left external carotid artery were exposed via midline incision and further isolated and ligated. A 2-mm silicon-coated filament (Doccol) was inserted into the internal carotid artery, advanced gently to the MCA until resistance was felt, and occlusion was confirmed by a corresponding decrease in blood flow (i.e., a decrease in the laser Doppler flow signal by 80%. After 60 minutes of occlusion, the animals were re-anesthetized, and the filament was removed. After recovery, the mice were kept in their home cage with ad libitum access to water and food. Sham-operated mice received the same surgical procedure, but the filament was […] in lieu of being advanced to the MCA. Body temperature was maintained at 37° C. throughout surgery in all mice via feedback-controlled heating pad. The overall mortality rate of animals subjected to MCA occlusion was approximately 20%. All animals in the sham group survived the procedure. Exclusion criteria: 1. Insufficient MCA occlusion (a reduction in blood flow to […] of the baseline value). 2. Death during the surgery. 3. Lack of brain ischemia as quantified post-mortem by histological analysis.
Anti-IL1β: Mice received two injections of antagonizing anti-IL-1β in sterile saline (clone: B122, InVivoMab, BioXcell, US), 1 hour prior to and 1 hour after surgery. Anti-IL-1β or the corresponding IgG control (Armenian hamster IgG, InVivoMab, BioXcell, US) was injected i.p. at a dose of 4 mg kg^−1 body weight in a final volume of 200 μl.
Anti-FasL: Mice received two injections of antagonizing anti-FasL in sterile saline (clone: MFL3, InVivoMab, BioXcell, US), 1 hour prior to and 1 hour after surgery. […]

[3] = test system: cf-dsDNA; assay: Cell-free dsDNA quantification in serum/plasma after stroke; format: in vivo, mice; settings: hrDNase 1000 U vs vehicle, 6 h after stroke or sham surgery
Excerpt: as §1
Cell-free nucleic acids (RNA, single strand (ss) DNA and double strand (ds) DNA) levels in the plasma of mice and human patients was assessed with a Qubit 2.0 fluorometer (Invitrogen) using specific fluorescent dyes which bind either ssDNA (ssDNA Assay Kit, Thermo Fisher Scientific) or dsDNA (HS dsDNA Assay kit, Thermo Fisher Scientific). […]

[4] = test system: caspase-1 activity in splenic CD11b^+ monocytes; assay: FAM FLICA flow cytometry of caspase-1 activity (inflammasome activation) in splenic monocytes after stroke; format: in vivo, mice; settings: hrDNase 1000 U 1 hour after surgery vs vehicle; experimental stroke; splenic monocytes
Excerpt: as §3
Human recombinant DNase (hrDNase): 1000 U of human recombinant DNase (Roche, Switzerland) dissolved in incubation 1× buffer (40 mM Tris-HCl, 10 mM NaCl, 6 mM MgCl2, 1 mM CaCl2, pH 7.9, diluted in PBS, Roche) was injected i.v. in the tail vein 1 hour after surgery in a final volume of 100 μl. The control group was administered vehicle injections at the same volume, route, and timing as experimental animals.
Caspase-8 inhibitor (Z-IETD-FMK) & Caspase-9 inhibitor (Z-LEHD-FMK): The apoptosis inhibitors Z-IETD-FMK and Z-LEHD-FMK (R&D systems, US) in DMSO dissolved in PBS and injected i.p. 30 minutes after surgery. Z-LEHD-FMK was injected at a dose of […] body weight at a final volume of 200 μl. Z-IETD-FMK was injected at a dose of 0.8 mg kg^−1 body weight at a final volume of 100 μl. The control groups were administered vehicle injections at the same volume, route, and timing as experimental animals.
To detect the active forms of caspase-1 in blood, spleen, and bone marrow samples, cell suspensions were stained with the fluorescent inhibitor probe FAM-YVAD-FMK (FAM FLICA, BioRad, Germany) for 30 minutes at 37° C. according to the manufacturer's instructions. After washing, the cells were stained for CD45^+CD3^+ T cells and CD45^+Cd11b^+ monocytes. The flow cytometry data was acquired on a BD FACSVerse (for representative gating strategy, see FIG. 10B).

[5] = test system: FasL on BMDMs; assay: BMDMs stimulated with post-stroke serum (±hrDNase), FasL expression by FACS; format: cell-based, mice; settings: BMDMs stimulated 10 minutes with post-stroke serum ±hrDNase; FasL 10 and 60 minutes after
Excerpt: Control-treated BMDMs received only FBS-containing culture media. […] Stimulation by secreted factors (left), and 2. Cell-cell contact (right).

[6] = test system: IL-1β; assay: IL-1β concentration in post-stroke serum treated ex vivo ±hrDNase; set-up: species or system mice; settings: ex vivo treatment of post-stroke mouse serum ±hrDNase
Method: Total IL-1β and caspase-1 levels from patient plasma samples (diluted 1:10 in sterile PBS) were obtained using commercial assay kits according to the manufacturers instructions (Quantikine ELISA human IL-1β, Quantikine ELISA human caspase-1 R&D systems). Total IL-1β and IL-18 levels from murine plasma samples were measured using the Duoset ELISA IL-1β and the Duoset ELISA IL-18 kit according to the manufacturer's instructions (R&D systems).

[7] = test system: FasL on CD11b^+ monocytes; assay: FasL expression on splenic CD11b+ monocytes by FACS after stroke; format: in vivo, mice; settings: hrDNase 1000 U after stroke vs control
Excerpt: as §1, §2

B1: hrDNase: Human recombinant DNase (Roche, Switzerland), DNA-degrading enzyme (protein, UniProt P24855 23-282, looked up)
Deoxyribonuclease-1: LKIAAFNIQTFGETKMSNATLVSYIVQILSRYDIALVQEVRDSHLTAVGKLLDNLNQDAPDTYHYVVSEPLGRNSYKERYLFVYRPDQVSAVDSYYYDDGCEPCGNDTFNREPAIVRFFSRFTEVREFAIVPLHAAPGDAVAEIDALYDVYLDVQEKWGLEDVMLMGDFNAGCSYVRPSQWSSIRLWTSPTFQWLIPDSADTTATPTHCAYDRIVVAGMLLRGAVVPDSALPFNFQAAYGLSDQLAQAISDHYPVEVMLK
splenic B cell survival [1]: improved B cell survival after experimental stroke | splenic T cell counts / T cell survival [2]: improved T cell survival after experimental stroke; also recorded: increased splenic T cell counts | serum dsDNA (cf-dsDNA) concentration [3]: reduction of cf-dsDNA blood concentrations; also recorded: decrease cf-dsDNA concentration in plasma; also recorded: decrease of serum dsDNA concentration in mice receiving hrDNase treatment after stroke to levels of sham-operated mice | serum dsDNA (cf-dsDNA) concentration ([3]; listed as human recombinant DNAse): efficient degradation of cf-dsDNA | monocyte inflammasome activation (caspase-1 probe FAM-FLICA) [4]: substantially reduced inflammasome activation in splenic monocytes; also recorded: decrease cf-dsDNA concentration in plasma and inflammasome activation in monocytes; also recorded: significantly reduced monocyte inflammasome activation | FasL upregulation on serum-stimulated monocytes (BMDMs) [5]: completely prevented the FasL upregulation on serum-stimulated monocytes | IL-1β concentration of post-stroke serum [6]: IL-1β concentrations did not differ between the two stroke serum groups | IL-1β concentration of post-stroke serum ([6]; listed as hrDNAse): did not affect the serum concentration of IL-1β | FasL expression on monocytes / FasL+ myeloid cell population [7]: prevented the expansion of FasL+myeloid cell population; also recorded: reduced FasL expression on monocytes
